Data taken from patent US9814672B2, “Echogenic vehicle for clinical delivery of plasminogen activator and other fibrin-binding therapeutics to thrombi” (priority 2007, dated 2017).
Read-outs that look alike come from different tables or passages of the source.

Experiments:
fibrin [1] = target: T1, fibrin (Homo sapiens, UniProt P02671+P02675+P02679); assay: Solid-phase fibrin-tPA activity assay (SOFIA-tPA), Scatchard analysis; settings: 37° C., read-out: KD of fibrin binding
T1 construct: purchased Calbiochem (EMD Biosciences, Inc., La Jolla, Calif.)
T1 sequence (P02671 36-629 limits assumed): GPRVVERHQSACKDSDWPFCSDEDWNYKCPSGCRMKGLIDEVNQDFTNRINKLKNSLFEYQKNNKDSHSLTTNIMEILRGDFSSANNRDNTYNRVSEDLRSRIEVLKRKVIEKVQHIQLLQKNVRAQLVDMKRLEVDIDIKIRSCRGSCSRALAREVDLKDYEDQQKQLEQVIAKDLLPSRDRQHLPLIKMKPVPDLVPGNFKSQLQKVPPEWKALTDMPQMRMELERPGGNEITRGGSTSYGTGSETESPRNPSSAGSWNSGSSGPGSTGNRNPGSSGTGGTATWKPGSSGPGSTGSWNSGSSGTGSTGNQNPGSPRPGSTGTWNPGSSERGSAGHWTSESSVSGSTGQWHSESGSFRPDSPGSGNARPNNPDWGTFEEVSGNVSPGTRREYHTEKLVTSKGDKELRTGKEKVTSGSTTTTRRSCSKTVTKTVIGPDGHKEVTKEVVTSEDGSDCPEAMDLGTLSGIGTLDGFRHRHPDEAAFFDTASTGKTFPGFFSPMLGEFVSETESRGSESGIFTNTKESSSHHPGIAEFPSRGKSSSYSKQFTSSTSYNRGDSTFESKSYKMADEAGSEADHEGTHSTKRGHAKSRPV
T1 sequence (P02675 45-491 limits assumed): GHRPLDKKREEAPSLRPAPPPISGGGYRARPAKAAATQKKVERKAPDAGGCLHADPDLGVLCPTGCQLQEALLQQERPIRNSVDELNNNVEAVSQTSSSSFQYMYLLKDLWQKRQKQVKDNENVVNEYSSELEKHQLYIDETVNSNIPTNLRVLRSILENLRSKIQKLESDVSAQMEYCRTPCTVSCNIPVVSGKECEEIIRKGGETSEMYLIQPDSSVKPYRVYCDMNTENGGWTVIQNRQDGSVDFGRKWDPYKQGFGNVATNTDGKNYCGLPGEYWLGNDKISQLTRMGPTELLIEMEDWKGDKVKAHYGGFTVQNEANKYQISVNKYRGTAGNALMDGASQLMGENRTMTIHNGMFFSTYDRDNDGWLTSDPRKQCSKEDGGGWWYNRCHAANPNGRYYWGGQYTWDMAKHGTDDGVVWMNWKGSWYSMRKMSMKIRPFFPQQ
T1 sequence (P02679 27-437 isoform P02679-2 limits assumed): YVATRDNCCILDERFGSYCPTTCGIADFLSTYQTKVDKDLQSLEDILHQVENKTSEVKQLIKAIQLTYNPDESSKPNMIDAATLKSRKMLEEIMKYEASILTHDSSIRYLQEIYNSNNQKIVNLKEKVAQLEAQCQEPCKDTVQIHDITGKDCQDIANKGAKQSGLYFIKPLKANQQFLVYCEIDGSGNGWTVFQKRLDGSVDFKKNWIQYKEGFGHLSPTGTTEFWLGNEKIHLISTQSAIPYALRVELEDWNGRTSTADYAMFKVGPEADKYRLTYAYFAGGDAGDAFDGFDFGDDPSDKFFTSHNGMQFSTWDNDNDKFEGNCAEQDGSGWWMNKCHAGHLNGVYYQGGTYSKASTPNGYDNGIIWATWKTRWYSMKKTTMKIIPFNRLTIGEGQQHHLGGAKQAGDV
Method: tPA-binding to fibrin was tested using a modification of the solid-phase fibrin-tPA activity assay (SOFIAtPA) developed by Angles-Cano (1986). This method combines a quantitative enzyme-linked immunosorbent assay (ELISA) technique, which enables calculation of ligand binding affinities, with a chromogenic measurement of enzyme specific activity. The latter provides quantitation of tPA bound to fibrin in the microtiter well, which permits the determination of binding affinities and immobilized fibrin concentration by classic Scatchard analysis.
Nunc Maxisorb microtiter plates were coated overnight at 4° C. with human fibrinogen (Calbiochem; 2.5.tg in 50 p.l 0.05 M sodium bicarbonate, pH 9.6, per well). Background wells were left uncoated. […]
About 200 μl of substrate-zymogen reagent (0.33 μM plasminogen+0.33 mM D-Val-Leu-Lys-p-nitroanilide in 0.02 M PBS, pH 7.3, with 0.1 M sodium chloride) was added to each sample well and to 12 additional wells (standard wells). […] The plates were then read at 405 nm in a Coulter microplate reader. Based on the response of the standards and the net OD of samples corrected for background absorbance in albumin-coated wells, concentrations of bound active tPA were calculated; Scatchard analyses were then performed and binding affinities determined.

fibrin [2] = target: T1, fibrin; settings: SOFIA-tPA assay; read-out: KD of tPA-fibrin binding reported by Angles-Cano (1986); cited from earlier work

Kd (fibrin [1]): 2.61 nM
Substance: tPA: Recombinant tissue-plasminogen activator (Activase®, Genentech Inc.), used as the thrombolytic agent [reference compound]
Kd (fibrin [2]): 1.4 ± 2 nM
